Laboratory results: US12385058B2, “Herbicide tolerance protein, encoding gene thereof and use thereof” (Beijing Dabeinong Biotechnology Co., Ltd., priority 2018, dated 2025)

System: soybean plants
Assay: Herbicide tolerance of transgenic soybean T1 plants (spraying, damage degree)
Format: in vivo
Conditions: sprayed with tribenuron-methyl 144 g ai/ha, eight-fold field concentration
Procedure: The degree of damage caused by the herbicide was measured for each plant according to the leaf curl degree and the growth point damage degree 3 days after spraying (3 DAT), 7 days after spraying (7 DAT), 14 days after spraying (14 DAT) and 21 days after spraying (21 DAT): the case where the leaves are flat as untreated plants and the growth points are intact is defined as having a damage degree of 0%; the case where veins are locally browned, new leaves are malformed and plant growth is slow is defined as having a damage degree of 50%; and the case where veins are purple, until the whole plant is dead and the growth points are browned and dry is defined as having a damage degree of 100%. The soybean plants into which the ALT02M1-01 nucleotide sequence was introduced were of three strains in total (S1, S2 and S3), the soybean plants into which the ALT02M2-01 nucleotide sequence was introduced were of three strains in total (S4, S5 and S6), the soybean plants into which the ALT02M3-01 nucleotide sequence was introduced were of three strains in total (S7, S8 and S9), the soybean plants into which the ALT02-01 nucleotide sequence was introduced were of three strains in total (S10, S11 and S12), the control soybean plants were of two strains in total (S13 and S14), and the wild-type soybean plants were of one strain in total (CK1); and 10-15 plants were selected from each strain and tested.

Molecule	herbicide tolerance compared with soybean plants into which ALT02-01 was introduced	herbicide tolerance imparted to transgenic soybean plants
ALT02M2-01: nucleotide sequence SEQ ID NO: 29 encoding ALT02M2, based on soybean codon usage bias (nucleic acid, the ALT02M2-01 nucleotide sequence encoding the amino acid sequence corresponding to the herbicide tolerant protein ALT02M2 and based on the soybean codon usage bias) DNA: ATGGAGACTGATAACGTGGAACTCGCCCAATCTAAGAGAAAGGTGGTGCTGGCTGAACAAGGGTCATTTTACATAGGGGGTAGGACTGTTACTGGTCCTGGCAAGTTTGATCCATCCAAACCTGTGATACCCTACAGTAACGAAGGAGCAACATTCTATATTAACCAAATGTATGTTAACTTCCAGGCCCCAGTGAGACCTAGGGGACTTCCATTGGTTTTCTGGCATGGAGGTGGCTTGACTGGTCACATCTGGGAGTCTACACCTGACGGCAGACCCGGGTTTCAAACCCTCTTCGTTCAGGATAGGCATACCGTGTACACTATTGACCAACCTGGGAGAGGAAGGGGTAACATCCCAACTTTTAACGGACCTTTCGGACAGTTGGAGGAAGAGAGTATTGTTAACACTGTGACAGGAAATGTATCAAAGGAAGGTGCCTGGGTGAGAGATAGGCTTGGCCCTGCTCCCGGGCAATTTTTCGAGAACTCTCAGTTTCCTAGAGGCTATGAAGACAATTACTTTAAGGAGATGGGATTCAGCCCATCTATATCCAGTGATGAAATTGTTGACGCTGTTGTGAAACTCGTGACCCATATTGGTCCTTGTGTTCTGGTGACTCACTCAGCATCCGGCGTTCTTGGGATGAGAGTGGCTACACACGCAAAGAATGTTAGGGGAATTGTGGCCTATGAACCAGCTACCTCAATCTTCCCCAAGGGAAAAGTTCCAGAGATACCACCTCTCGCTGATAAGAAAAGCCAAATCTTTCCCCCATTCGAAATACAGGAGTCTTACTTTAAGAAACTTGCCAAGATTCCAATCCAATTTGTTTTCGGAGATAACATCCCCAAGAATCCAAAATCAGCATATTGGTTCCTGGACTGGTGGAGAGTGACAAGATACGCACATAGTCTCAGCCTGGAGGCCATAAACAAATTGGGGGGACAAGCTTCCCTTTTGGATCTTCCTACTGCAGGATTGAGAGGTAATACACACTTTCCCTTCACCGATAGGAACAATGTTCAGGTGGCTTCTCTCCTGTCAGACTTTCTGGGTAAACACGGTCTGGATCAAAATGAGAGCAAACTCGCCGCCGCCCTGGAATGA	significantly increased tolerance to benzenesulfonic acid	impart transgenic soybean plants with the tolerance to benzenesulfonic acid
ALT02-01: nucleotide sequence SEQ ID NO: 21 encoding ALT02, based on soybean codon usage bias (nucleic acid, the ALT02-01 nucleotide sequence encoding the amino acid sequence corresponding to the ALT02 and based on the soybean codon usage bias) DNA: ATGGAGACTGATAACGTGGAACTCGCCCAATCTAAGAGAAAGGTGGTGCTGGCTGAACAAGGGTCATTTTACATAGGGGGTAGGACTGTTACTGGTCCTGGCAAGTTTGATCCATCCAAACCTGTGATACCCTACAGTAACGAAGGAGCAACATTCTATATTAACCAAATGTATGTTAACTTCCAGGCCCCAGTGAGACCTAGGGGACTTCCATTGGTTTTCTGGCATGGAGGTGGCTTGACTGGTCACATCTGGGAGTCTACACCTGACGGCAGACCCGGGTTTCAAACCCTCTTCGTTCAGGATAGGCATACCGTGTACACTATTGACCAACCTGGGAGAGGAAGGGGTAACATCCCAACTTTTAACGGACCTTTCGGACAGTTGGAGGAAGAGAGTATTGTTAACACTGTGACAGGAAATTCTTCAAAGGAAGGTGCCTGGGTGAGAGATAGGCTTGGCCCTGCTCCCGGGCAATTTTTCGAGAACTCTCAGTTTCCTAGAGGCTATGAAGACAATTACTTTAAGGAGATGGGATTCAGCCCATCTATATCCAGTGATGAAATTGTTGACGCTGTTGTGAAACTCGTGACCCATATTGGTCCTTGTGTTCTGGTGACTCACTCAGCATCCGGCGTTCTTGGGATGAGAGTGGCTACACACGCAAAGAATGTTAGGGGAATTGTGGCCTATGAACCAGCTACCTCAATCTTCCCCAAGGGAAAAGTTCCAGAGATACCACCTCTCGCTGATAAGAAAAGCCAAATCTTTCCCCCATTCGAAATACAGGAGTCTTACTTTAAGAAACTTGCCAAGATTCCAATCCAATTTGTTTTCGGAGATAACATCCCCAAGAATCCAAAATCAGCATATTGGTTCCTGGACTGGTGGAGAGTGACAAGATACGCACATAGTCTCAGCCTGGAGGCCATAAACAAATTGGGGGGACAAGCTTCCCTTTTGGATCTTCCTACTGCAGGATTGAGAGGTAATACACACTTTCCCTTCACCGATAGGAACAATGTTCAGGTGGCTTCTCTCCTGTCAGACTTTCTGGGTAAACACGGTCTGGATCAAAATGAGAGCAAACTCGCCGCCGCCCTGGAATGA	–	impart transgenic soybean plants with the tolerance to benzenesulfonic acid
ALT02M3-01: nucleotide sequence SEQ ID NO: 33 encoding ALT02M3, based on soybean codon usage bias (nucleic acid, the ALT02M3-01 nucleotide sequence encoding the amino acid sequence corresponding to the herbicide tolerant protein ALT02M3 and based on the soybean codon usage bias) DNA: ATGGAGACTGATAACGTGGAACTCGCCCAATCTAAGAGAAAGGTGGTGCTGGCTGAACAAGGGTCATTTTACATAGGGGGTAGGACTGTTACTGGTCCTGGCAAGTTTGATCCATCCAAACCTGTGATACGAGCCAGTAACGAAGGAGCAACATTCTATATTAACCAAATGTATGTTAACTTCCAGGCCCCAGTGAGACCTAGGGGACTTCCATTGGTTTTCTGGCATGGAGGTGGCTTGACTGGTCACATCTGGGAGTCTACACCTGACGGCAGACCCGGGTTTCAAACCCTCTTCGTTCAGGATAGGCATACCGTGTACACTATTGACCAACCTGGGAGAGGAAGGGGTAACATCCCAACTTTTAACGGACCTTTCGGACAGTTGGAGGAAGAGAGTATTGTTAACACTGTGACAGCCAATGTATCAAAGGAACGAGCCTGGGTGAGAGATAGGCTTGGCCCTGCTCCCGGGCAATTTTTCGAGAACTCTCAGTTTCCTAGAGGCTATGAAGACAATTACTTTAAGGAGATGGGATTCAGCCCATCTATATCCAGTGATGAAATTGTTGACGCTGTTGTGAAACTCGTGACCCATATTGGTCCTTGTGTTCTGGTGACTCACTCAGCATCCGGCGTTCTTGGGATGAGAGTGGCTACACACGCAAAGAATGTTAGGGGAATTGTGGCCTATGAACCAGCTACCTCAATCTTCCCCAAGGGAAAAGTTCCAGAGATACCACCTCTCGCTGATAAGAAAAGCCAAATCTTTCCCCCATTCGAAATACAGGAGTCTTACTTTAAGAAACTTGCCAAGATTCCAATCCAATTTGTTTTCGGAGATAACATCCCCAAGAATCCAAAATCAGCATATTGGTTCCTGGACTGGTGGAGAGTGACAAGATACGCACATAGTCTCAGCCTGGAGGCCATAAACAAATTGGGGGGACAAGCTTCCCTTTTGGATCTTCCTACTGCAGGATTGAGAGGTAATACACACTTTCCCTTCACCGATAGGAACAATGTTCAGGTGGCTTCTCTCCTGTCAGACTTTCTGGGTAAACACGGTCTGGATCAAAATGAGAGCAAACTCGCCGCCGCCCTGGAATGA	significantly increased tolerance to benzenesulfonic acid	impart transgenic soybean plants with the tolerance to benzenesulfonic acid
